These results are taken from article PMC5452487.

Details in all cases: EMSA with 0.75 ug rArcR-ACME and 61.2 pmol biotinylated probe; buffer, salt, pH and temperature not given in the material
For orientation: Mobility shift assays separate free from complexed probe on a gel.

Data set [1] has as its target T1, rArcR-ACME (Staphylococcus aureus USA300_FPR3757) (UniProt E9KNS2).
T1 sequence: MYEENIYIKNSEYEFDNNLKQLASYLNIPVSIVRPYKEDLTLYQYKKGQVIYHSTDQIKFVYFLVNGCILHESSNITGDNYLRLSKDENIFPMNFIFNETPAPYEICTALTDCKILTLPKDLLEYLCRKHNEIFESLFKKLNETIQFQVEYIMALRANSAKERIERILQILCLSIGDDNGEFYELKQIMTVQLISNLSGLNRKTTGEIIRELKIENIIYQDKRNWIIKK
Put plainly: EMSA.

Data set [2] concerns the target T1, rArcR-ACME (Staphylococcus aureus USA300_FPR3757). In words: UV cross-linking.
Data set [3] has the same target. Put plainly: competition.

For the sequence “GTACAAAATACATATTCATACAAAATTTTGCATTGAATAAATCTATATATGTGAAAACCCTCCCTAAACAATTGTGAATTAAATCACACGATGTTTTTTGAAAGCGTTTTATAATGTGAATGT (double strand) [arcACME promoter probe, 123 bp]”, the binding result in data set [1] and in data set [2] was “binds” each time. On to “CAAATGATCACAGCATTTGGTACAGGAATCGGTGGCGACTTTGATCTAGCGAAAGCAAGATATCACAAAATCGTCATTATGACTGATGCCG (double strand) [gyrB fragment, non-specific competitor, 91 bp]”, for which the binding entry in data set [3] is listed as “no binding”. Still for that read-out and setting: with “GTACAAAATACATATTCATACAAAATTTTGCATTGAATAAATCTATATATGTGAAAACCCTCCCTAAACAATTGTGAATTAAATCACACGATGTTTTTTGAAAGCGTTTTATAATGTGAATGT (double strand) [arcACME promoter fragment, unlabelled specific competitor]” the entry was “binds”.
